The results in this text go back to paper doi:10.1101/2023.04.21.537812 (bioRxiv, 2023).

This data set concerns the molecule itself. The data set is described as follows: SEC. For orientation: SEC sorts molecules by how far they enter the pores of the column.

B1: uncleaved Ycf1p-3xFLAG (natural protein, S. cerevisiae, UniProt P39109 1-1515, looked up)
chain: MAGNLVSWACKLCRSPEGFGPISFYGDFTQCFIDGVILNLSAIFMITFGIRDLVNLCKKKHSGIKYRRNWIIVSRMALVLLEIAFVSLASLNISKEEAENFTIVSQYASTMLSLFVALALHWIEYDRSVVANTVLLFYWLFETFGNFAKLINILIRHTYEGIWYSGQTGFILTLFQVITCASILLLEALPKKPLMPHQHIHQTLTRRKPNPYDSANIFSRITFSWMSGLMKTGYEKYLVEADLYKLPRNFSSEELSQKLEKNWENELKQKSNPSLSWAICRTFGSKMLLAAFFKAIHDVLAFTQPQLLRILIKFVTDYNSERQDDHSSLQGFENNHPQKLPIVRGFLIAFAMFLVGFTQTSVLHQYFLNVFNTGMYIKSALTALIYQKSLVLSNEASGLSSTGDIVNLMSVDVQKLQDLTQWLNLIWSGPFQIIICLYSLYKLLGNSMWVGVIILVIMMPLNSFLMRIQKKLQKSQMKYKDERTRVISEILNNIKSLKLYAWEKPYREKLEEVRNNKELKNLTKLGCYMAVTSFQFNIVPFLVSCCTFAVFVYTEDRALTTDLVFPALTLFNLLSFPLMIIPMVLNSFIEASVSIGRLFTFFTNEELQPDSVQRLPKVKNIGDVAINIGDDATFLWQRKPEYKVALKNINFQAKKGNLTCIVGKVGSGKTALLSCMLGDLFRVKGFATVHGSVAYVSQVPWIMNGTVKENILFGHRYDAEFYEKTIKACALTIDLAILMDGDKTLVGEKGISLSGGQKARLSLARAVYARADTYLLDDPLAAVDEHVARHLIEHVLGPNGLLHTKTKVLATNKVSALSIADSIALLDNGEITQQGTYDEITKDADSPLWKLLNNYGKKNNGKSNEFGDSSESSVRESSIPVEGELEQLQKLNDLDFGNSDAISLRRASDATLGSIDFGDDENIAKREHREQGKVKWNIYLEYAKACNPKSVCVFILFIVISMFLSVMGNVWLKHWSEVNSRYGSNPNAARYLAIYFALGIGSALATLIQTIVLWVFCTIHASKYLHNLMTNSVLRAPMTFFETTPIGRILNRFSNDIYKVDALLGRTFSQFFVNAVKVTFTITVICATTWQFIFIIIPLSVFYIYYQQYYLRTSRELRRLDSITRSPIYSHFQETLGGLATVRGYSQQKRFSHINQCRIDNNMSAFYPSINANRWLAYRLELIGSIIILGAATLSVFRLKQGTLTAGMVGLSLSYALQITQTLNWIVRMTVEVETNIVSVERIKEYADLKSEAPLIVEGHRPPKEWPSQGDIKFNNYSTRYRPELDLVLKHINIHIKPNEKVGIVGRTGAGKSSLTLALFRMIEASEGNIVIDNIAINEIGLYDLRHKLSIIPQDSQVFEGTVRENIDPINQYTDEAIWRALELSHLKEHVLSMSNDGLDAQLTEGGGNLSVGQRQLLCLARAMLVPSKILVLDEATAAVDVETDKVVQETIRTAFKDRTILTIAHRLNTIMDSDRIIVLDNGKVAEFDSPGQLLSDNKSLFYSLCMEAGLVNEN
With B1, the binding result is recorded as “binds”.
